Measured values published in patent publication EP2871189A1 (INSTITUT PASTEUR, dated 2015).

Tests used:
[1] = target: T1, VHH-E9 containing the strep-tag sequence of SEQ ID NO: 13 at the C terminus; experiment: ELISA assay after Friguet et al 1985 (method as in the sentence before)
T1 construct: also called Strep-tagged anti-GFAP VHH E9; anti-GFAP VHH E9

[2] = target: recombinant ectodomain of glycoprotein E2 of GB virus (GBV-B) fused to the double Strep-Tag (GB virus (GBV-B)); experiment: Western blot

B1: monoclonal antibody C23.21 (antibody, V domains shown)
VH: EVQLEQSGPELVKPGASVKMSCKASGYTFTNYYMKWVKQSHGKSLEWIGDLNPNNGDTFYNQKFKGKATLTVDKSSNTAYMQLNSLTSEDSAVYYCARTGRYEENAMDYWGQGTSVTVSS
VL: ELVMTQSPASLAVSLGQRATISCRASESVDSYGKSFMHWYQLKPGQPPKLLIYRASNLESGVPARFSGSGSRTDFTLTIDPVEADDAATYYCQQNNEDPWTFGGGTKLEIK
notes: also called C23-21 mAb; anti-strep tag C23-21 mAb
Kd [1]: 0.91 nM | binding result [2]: binds
